Here are results for one molecule from publication PMC4398458, “Reversible Linkage of Two Distinct Small Molecule Inhibitors of Myc Generates a Dimeric Inhibitor with Improved Potency That Is Active in Myc Over-Expressing Cancer Cell Lines” (PLoS ONE, 2015).

This series addresses c-Myc bHLH-LZ;Max (human;human, UniProt P01106-1;P61244 352-439;1-160, |). Nature of the series: EMSA; Myc:Max heterodimer, no inhibitor; EMSA: 100 mM KCl, 1 mM DTT, 1 mM EDTA, 50 mM Tris pH 7.4, 5 mM MgCl2, 0.002% NP40, 2% DMSO, room temperature; 200 ng Myc, 350 ng Max, 100 nM DNA, 10 ul; gel run in TBE at 4 C. The settings on record: protein: recombinant;commercial; tags: N-terminal 6xHis with TEV cleavage site; C-terminal GGCD extension;His and GST; copies: 1;1; label: none (SYBR Green stain); (only one strand given).

Chain of c-Myc bHLH-LZ;Max (P01106 367-454, chain 1 of 2): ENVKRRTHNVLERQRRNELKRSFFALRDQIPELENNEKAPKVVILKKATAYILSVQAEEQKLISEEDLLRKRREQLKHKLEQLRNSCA
Chain of c-Myc bHLH-LZ;Max (P61244 whole entry, chain 2 of 2): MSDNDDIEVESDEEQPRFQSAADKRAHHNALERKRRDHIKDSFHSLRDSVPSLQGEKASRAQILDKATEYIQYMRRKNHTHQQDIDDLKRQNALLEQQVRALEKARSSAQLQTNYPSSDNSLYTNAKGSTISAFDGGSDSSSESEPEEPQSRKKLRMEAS

B1: E-box oligonucleotide (dsDNA)
DNA 1: GATCAGTTGACCACGTGGTCTGGG
DNA 2: CCCAGACCACGTGGTCAACTGATC
On to B1, for which the binding result was “binds”.
